Source: article PMC8506132, “Structural and Kinetic Insights Into the Molecular Basis of Salt Tolerance of the Short-Chain Glucose-6-Phosphate Dehydrogenase From Haloferax volcanii” (Frontiers in Microbiology, 2021)

Substrate: NC(=O)c1ccc[n+]([C@@H]2O[C@H](COP(=O)(O)OP(=O)(O)OC[C@H]3O[C@@H](n4cnc5c(N)ncnc54)[C@H](O)[C@@H]3O)[C@@H](O)[C@H]2O)c1
Test: purified protein
Type: biochemical, Haloferax volcanii
Details: 2.0 M KCl, G6P co-substrate, pH 7.5, 25 °C, varied: cofactor

B1: HvG6PDH (Haloferax volcanii DS2) (protein)
chain: MDQPVLLTGAGGRVGQAILGHIGDAYDWRLLDREPLSDEKIPDSVDSTEVYVADVTDETAVRNAMDGVHAVIHLAGDPRPEAPWDSVLRNNIDGTQQMFDAAVDVGVEKFAFASSNHAVGAYETTDRTPDMYRPHHEFRLDGTELPRPSNLYGVSKAAGETLGRYYHDHHDISVVNVRIGNLTQHHPPKEYERGQAMWLSYRDCGHLFECCIEADYDYEIVYGISDNDRKYYSIDRARAVLGYDPQDNSAEFTFEGEPLDEA
notes: modelled as dimer
Km: 280 ± 68 µM
kcat: 48.5 ± 4.3 s⁻¹
